The values that follow come from patent US20230192789A1, “STRUCTURALLY-STABILIZED AND HDMX-SELECTIVE P53 PEPTIDES AND USES THEREOF” (Dana-Farber Cancer Institute, Inc., priority 2020, published 2023).

This experiment addresses T1, recombinant HDMX (amino acids 1-490 of SEQ ID NO:104) (Homo sapiens, UniProt O15151).
T1 construct: thioredoxin (N, cleaved yes); S tag (N, cleaved yes); hexahistidine (N, cleaved yes); made in house; host or cells: E. coli (inferred: pET32-LIC vector, handled as described for HDM2 in BL21(DE3))
T1 sequence (O15151 1-490): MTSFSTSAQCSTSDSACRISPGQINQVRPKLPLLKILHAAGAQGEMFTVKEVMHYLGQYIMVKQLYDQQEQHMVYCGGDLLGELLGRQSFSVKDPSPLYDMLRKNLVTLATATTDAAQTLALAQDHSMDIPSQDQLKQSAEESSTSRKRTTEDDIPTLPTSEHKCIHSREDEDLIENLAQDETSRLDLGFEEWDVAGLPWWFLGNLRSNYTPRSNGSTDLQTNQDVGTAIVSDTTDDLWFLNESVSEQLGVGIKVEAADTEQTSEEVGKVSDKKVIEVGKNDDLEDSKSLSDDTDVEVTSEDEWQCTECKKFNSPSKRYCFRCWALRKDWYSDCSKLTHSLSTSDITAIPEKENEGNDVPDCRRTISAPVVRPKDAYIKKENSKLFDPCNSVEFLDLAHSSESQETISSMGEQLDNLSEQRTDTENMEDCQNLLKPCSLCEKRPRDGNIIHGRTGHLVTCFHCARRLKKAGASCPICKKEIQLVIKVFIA
In words: Competitive streptavidin pull-down of biotinylated peptides with 1:1 recombinant HDM2/HDMX mixture, HDMX western. The format is binding. Conditions: biotinylated stapled peptide, 1:1 mixture of recombinant HDM2 and HDMX.

Bridges are numbered along the chain shown (N, C = ends). Where no end group is shown, it is not given here. [ ]: non-standard residue; d: D form. The star is where a group is joined. Biotin = O=C1N[C@H]2[C@H](CS[C@H]2CCCCC(=O)*)N1; R8 = C=CCCCCCC[C@@](C)(N)C(=O)O; Cba = N[C@@H](CC1CCC1)C(=O)O; S5 = C=CCCC[C@](C)(N)C(=O)O

For the substance “ATSP-7041 B26C (Biotin-LTF[R8]EYWAQC[S5]SAA-NH2; staple 4-11; SMILES CC(C)C[C@H](NC(=O)CCCC[C@@H]1SC[C@@H]2NC(=O)N[C@@H]21)C(=O)N[C@H](C(=O)N[C@@H](Cc1ccccc1)C(=O)N[C@]1(C)CCCCCCC=CCCC[C@@](C)(C(=O)N[C@@H](CO)C(=O)N[C@@H](C)C(=O)N[C@@H](C)C(N)=O)NC(=O)[C@H](CS)NC(=O)[C@H](CCC(N)=O)NC(=O)[C@H](C)NC(=O)[C@H](Cc2c[nH]c3ccccc23)NC(=O)[C@H](Cc2ccc(O)cc2)NC(=O)[C@H](CCC(=O)O)NC1=O)[C@@H](C)O)”, the “HDMX versus HDM2 binding selectivity” value is “HDMX selectivity over HDM2”. Still for that read-out and setting: to “SAH-p53-4 L14E: Formula (I) stapled peptide: [Xaa]w ESQETF, [Xaa]x DLWKLL, [Xaa]y EN (ESQETF[R8]DLWKLL[S5]EN-NH2; staple 7-14; also: biotinylated)” belongs “selectivity to HDM2”.

Regarding “SAH-p53-4 D21E: Formula (I) stapled peptide: [Xaa]w LSQETF, [Xaa]x ELWKLL, [Xaa]y EN (LSQETF[R8]ELWKLL[S5]EN-NH2; staple 7-14; not fully specified (N-terminus))”, the “HDMX versus HDM2 binding selectivity” value is “dual selectivity to HDMX and HDM2”. As for “SAH-p53-4 N29R: Formula (I) stapled peptide: [Xaa]w LSQETF, [Xaa]x DLWKLL, [Xaa]y ER (LSQETF[R8]DLWKLL[S5]ER-NH2; staple 7-14; not fully specified (N-terminus))”, the “HDMX versus HDM2 binding selectivity” value is “HDMX selectivity over HDM2”. In addition, the “HDMX versus HDM2 binding selectivity” value (listed as SEQ ID NO:29) is “selectivity to HDMX”. Take “LTF8EYWEQBXSAA (LTF[R8]EYWEQ[Cba][S5]SAA-NH2; staple 4-11; not fully specified (N-terminus); printed as LTF8EYWEQBXSAA) [ATSP-7041 A24E]”: the “HDMX versus HDM2 binding selectivity” value was “restored dual HDM2/HDMX binding selectivity”. Besides, under “listed as SEQ ID NO:77”, the “HDMX versus HDM2 binding selectivity” value was “dual-selectivity to HDMX and HDM2”.

Regarding “ATSP-7041 B26Y (Biotin-LTF[R8]EYWAQY[S5]SAA-NH2; staple 4-11; SMILES CC(C)C[C@H](NC(=O)CCCC[C@@H]1SC[C@@H]2NC(=O)N[C@@H]21)C(=O)N[C@H](C(=O)N[C@@H](Cc1ccccc1)C(=O)N[C@]1(C)CCCCCCC=CCCC[C@@](C)(C(=O)N[C@@H](CO)C(=O)N[C@@H](C)C(=O)N[C@@H](C)C(N)=O)NC(=O)[C@H](Cc2ccc(O)cc2)NC(=O)[C@H](CCC(N)=O)NC(=O)[C@H](C)NC(=O)[C@H](Cc2c[nH]c3ccccc23)NC(=O)[C@H](Cc2ccc(O)cc2)NC(=O)[C@H](CCC(=O)O)NC1=O)[C@@H](C)O)”, the “HDMX versus HDM2 binding selectivity” value was “HDMX selectivity over HDM2”. On to “ATSP-7041 B26G (Biotin-LTF[R8]EYWAQG[S5]SAA-NH2; staple 4-11; SMILES CC(C)C[C@H](NC(=O)CCCC[C@@H]1SC[C@@H]2NC(=O)N[C@@H]21)C(=O)N[C@H](C(=O)N[C@@H](Cc1ccccc1)C(=O)N[C@]1(C)CCCCCCC=CCCC[C@@](C)(C(=O)N[C@@H](CO)C(=O)N[C@@H](C)C(=O)N[C@@H](C)C(N)=O)NC(=O)CNC(=O)[C@H](CCC(N)=O)NC(=O)[C@H](C)NC(=O)[C@H](Cc2c[nH]c3ccccc23)NC(=O)[C@H](Cc2ccc(O)cc2)NC(=O)[C@H](CCC(=O)O)NC1=O)[C@@H](C)O)”, for which the “HDMX versus HDM2 binding selectivity” value was “HDMX selectivity over HDM2”. The “HDMX versus HDM2 binding selectivity” value (listed as SEQ ID NO:61) is “selectivity to HDMX”. With “ATSP-7041 B26W (Biotin-LTF[R8]EYWAQW[S5]SAA-NH2; staple 4-11; SMILES CC(C)C[C@H](NC(=O)CCCC[C@@H]1SC[C@@H]2NC(=O)N[C@@H]21)C(=O)N[C@H](C(=O)N[C@@H](Cc1ccccc1)C(=O)N[C@]1(C)CCCCCCC=CCCC[C@@](C)(C(=O)N[C@@H](CO)C(=O)N[C@@H](C)C(=O)N[C@@H](C)C(N)=O)NC(=O)[C@H](Cc2c[nH]c3ccccc23)NC(=O)[C@H](CCC(N)=O)NC(=O)[C@H](C)NC(=O)[C@H](Cc2c[nH]c3ccccc23)NC(=O)[C@H](Cc2ccc(O)cc2)NC(=O)[C@H](CCC(=O)O)NC1=O)[C@@H](C)O)”, the “HDMX versus HDM2 binding selectivity” value is given as “HDMX selectivity over HDM2”. “ATSP-7041 B26T (Biotin-LTF[R8]EYWAQT[S5]SAA-NH2; staple 4-11; SMILES CC(C)C[C@H](NC(=O)CCCC[C@@H]1SC[C@@H]2NC(=O)N[C@@H]21)C(=O)N[C@H](C(=O)N[C@@H](Cc1ccccc1)C(=O)N[C@]1(C)CCCCCCC=CCCC[C@@](C)(C(=O)N[C@@H](CO)C(=O)N[C@@H](C)C(=O)N[C@@H](C)C(N)=O)NC(=O)[C@H]([C@@H](C)O)NC(=O)[C@H](CCC(N)=O)NC(=O)[C@H](C)NC(=O)[C@H](Cc2c[nH]c3ccccc23)NC(=O)[C@H](Cc2ccc(O)cc2)NC(=O)[C@H](CCC(=O)O)NC1=O)[C@@H](C)O)”: the “HDMX versus HDM2 binding selectivity” value is listed as “HDMX selectivity over HDM2”.

For the substance “SAH-p53-4 L14A: Formula (I) stapled peptide: [Xaa]w ASQETF, [Xaa]x DLWKLL, [Xaa]y EN (ASQETF[R8]DLWKLL[S5]EN-NH2; staple 7-14; also: biotinylated)”, the “HDMX versus HDM2 binding selectivity” value was “dual selectivity to HDMX and HDM2”. Turning to “LTF8EYWAQBXSAA [ATSP-7041, reference compound]”, the “HDMX versus HDM2 binding selectivity” value is “dual-HDM2/HDMX targeting”. Same read-out and setting: to “SAH-p53-4 L22E: Formula (I) stapled peptide: [Xaa]w LSQETF, [Xaa]x DEWKLL, [Xaa]y EN (LSQETF[R8]DEWKLL[S5]EN-NH2; staple 7-14; also: biotinylated)” belongs “dual selectivity to HDMX and HDM2”. As to “SAH-p53-4 L25R: Formula (I) stapled peptide: [Xaa]w LSQETF, [Xaa]x DLWKRL, [Xaa]y EN (LSQETF[R8]DLWKRL[S5]EN-NH2; staple 7-14; not fully specified)”, the “HDMX versus HDM2 binding selectivity” value is “dual selectivity to HDMX and HDM2”.

Turning to “SAH-p53-4 L22A: Formula (I) stapled peptide: [Xaa]w LSQETF, [Xaa]x DAWKLL, [Xaa]y EN (LSQETF[R8]DAWKLL[S5]EN-NH2; staple 7-14; also: biotinylated)”, the “HDMX versus HDM2 binding selectivity” value was “dual selectivity to HDMX and HDM2”. With “ATSP-7041 B26D (Biotin-LTF[R8]EYWAQD[S5]SAA-NH2; staple 4-11; SMILES CC(C)C[C@H](NC(=O)CCCC[C@@H]1SC[C@@H]2NC(=O)N[C@@H]21)C(=O)N[C@H](C(=O)N[C@@H](Cc1ccccc1)C(=O)N[C@]1(C)CCCCCCC=CCCC[C@@](C)(C(=O)N[C@@H](CO)C(=O)N[C@@H](C)C(=O)N[C@@H](C)C(N)=O)NC(=O)[C@H](CC(=O)O)NC(=O)[C@H](CCC(N)=O)NC(=O)[C@H](C)NC(=O)[C@H](Cc2c[nH]c3ccccc23)NC(=O)[C@H](Cc2ccc(O)cc2)NC(=O)[C@H](CCC(=O)O)NC1=O)[C@@H](C)O)”, the “HDMX versus HDM2 binding selectivity” value is recorded as “HDMX selectivity over HDM2”. On to “ATSP-7041 B26P (Biotin-LTF[R8]EYWAQP[S5]SAA-NH2; staple 4-11; SMILES CC(C)C[C@H](NC(=O)CCCC[C@@H]1SC[C@@H]2NC(=O)N[C@@H]21)C(=O)N[C@H](C(=O)N[C@@H](Cc1ccccc1)C(=O)N[C@]1(C)CCCCCCC=CCCC[C@@](C)(C(=O)N[C@@H](CO)C(=O)N[C@@H](C)C(=O)N[C@@H](C)C(N)=O)NC(=O)[C@@H]2CCCN2C(=O)[C@H](CCC(N)=O)NC(=O)[C@H](C)NC(=O)[C@H](Cc2c[nH]c3ccccc23)NC(=O)[C@H](Cc2ccc(O)cc2)NC(=O)[C@H](CCC(=O)O)NC1=O)[C@@H](C)O)”, for which the “HDMX versus HDM2 binding selectivity” value was “HDMX selectivity over HDM2”.
